# T1: human TIGIT on CHOK1-huTIGIT-2A3 cells (human, UniProt Q495A1 22-244)
# T1 construct: whole, on cells; also called cells expressing the human TIGIT
# T1 sequence (looked up): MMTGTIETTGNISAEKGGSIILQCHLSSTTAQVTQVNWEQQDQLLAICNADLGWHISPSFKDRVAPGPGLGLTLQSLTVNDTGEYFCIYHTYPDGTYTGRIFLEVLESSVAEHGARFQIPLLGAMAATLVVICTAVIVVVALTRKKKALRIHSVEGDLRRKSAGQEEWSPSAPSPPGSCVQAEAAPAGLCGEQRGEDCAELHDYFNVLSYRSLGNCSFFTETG
# T2: Human TIGIT (SPR analyte, Example 7) (human, UniProt Q495A1 22-141, limits assumed)
# T2 sequence (looked up): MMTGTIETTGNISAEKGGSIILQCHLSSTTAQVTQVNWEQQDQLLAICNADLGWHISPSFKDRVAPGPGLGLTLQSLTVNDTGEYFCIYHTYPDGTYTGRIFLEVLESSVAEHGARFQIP
# Tests used:
# [1] = biological target: T1, human TIGIT on CHOK1-huTIGIT-2A3 cells; assay: flow cytometry competition with huCD155-moFc on CHOK1-huTIGIT-2A3 cells
# Procedure: After reaction, the 96-well U-shaped plate was resuspended with 1% BSA/PBS, centrifuged (300 g×3 min) to discard the supernatant, and washed once in such way; and Alexa488-goat anti-mouse-Fc (Jackson ImmunoResearch, #115-545-071) diluted at 1:300 was added to react for 15 min in the dark at room temperature. After reaction, the 96-well U-shaped plate was resuspended with 1% BSA/PBS, centrifuged (300 g×3 min) to discard the supernatant, washed three times in such a way, and finally resuspended with 100 μL of 1% BSA/PBS for each wall; and the fluorescence intensity of an FITC channel was detected with a flow cytometer (BD, #CantoII).
# [2] = biological target: T1, human TIGIT on CHOK1-huTIGIT-2A3 cells; assay: flow cytometry on CHOK1-huTIGIT-2A3 cells
# Procedure: All chimeric antibodies and humanized antibodies were diluted to 20 μg/ml with 1% BSA in PBS solution (1% BSA/PBS), were added to a 96-well U-shaped plate at 20 μL per well; and a negative control (with 1% BSA/PBS added only) was set up at the same time. The suspension of cells (CHOK1-huTIGIT-2A3, Huabo Biopharm) expressing human TIGIT during the logarithmic growth phase were centrifuged (1000 rpm×5 min) to discard the culture medium; and the cells were resuspended with 1% BSA/PBS until the density of viable cells was 1×10⁶/mL, and were added, at 20 μL (2×10⁴ cells) per well, to the 96-well U-shaped plate with the anti-TIGIT antibody to react for 30 min at room temperature. After reaction, the 96-well U-shaped plate was resuspended with 1% BSA/PBS, centrifuged (300 g×3 min) to discard the supernatant, and washed once in such a way; and PE-goat anti-human-Fc (Jackson ImmunoResearch, #109-115-098) diluted at 1:200 was added to react for 15 min in the dark at room temperature. After reaction, the 96-well U-shaped plate was resuspended with 1% BSA/PBS, centrifuged (300 g×3 min) to discard the supernatant, washed three times in such a way, and finally resuspended with 100 μL of 1% BSA/PBS for each wall; and the fluorescence intensity of a PE channel was detected with a flow cytometer (BD, #CantoII).
# [3] = biological target: TIGIT on Jurkat-TIGIT-22G8 cells; assay: cell-based or functional assay
# [4] = biological target: T2, Human TIGIT (SPR analyte, Example 7); assay: SPR (Biacore 8K), antibody captured by anti-human chip, antigen analyte, 1:1 model
# Procedure: (§1) The Anti-Human Capture-CMS chip (GE, #BR-1005-30) was prepared according to the method for conjugating the Human Antibody Capture Kit (GE, #BR-1008-39) to the Amino Conjugation Kit (GE, BR-1000-50).
# [5] = biological target: Human PD-L1 (SPR analyte, Example 7) (human, UniProt Q9NZQ7 19-238, limits assumed); assay: as above
# Chain of Human PD-L1 (SPR analyte, Example 7) (Q9NZQ7 19-238 limits assumed): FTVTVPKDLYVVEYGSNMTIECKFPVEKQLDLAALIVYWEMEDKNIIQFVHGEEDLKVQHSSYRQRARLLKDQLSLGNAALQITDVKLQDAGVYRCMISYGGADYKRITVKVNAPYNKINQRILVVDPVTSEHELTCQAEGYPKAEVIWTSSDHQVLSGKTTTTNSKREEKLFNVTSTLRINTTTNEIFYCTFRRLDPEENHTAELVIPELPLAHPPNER
# Procedure: as §1
Binder,IC50 [1],EC50 [2],"EC50 (nM), IL2 secretion of Jurkat-TIGIT-22G8 cells with PHA and CD155 [3]",Kd [4],koff [4],kon [4],Kd [5],koff [5],kon [5]
"900424 (antibody, human IgG1, kappa, L234A L235A, V domains shown, Chimeric form of B3/29F6; also called ADCC KO type human-mouse chimeric antibody (number 900424)) VH: DVQLQESGPGLVKPSQSLSLTCTVTGYSITSDYAWIWIRQFPGNKVEWMGYITSSGSTSYNPSLKSRISFTRDTSKNQFFLQLTSVTTEDTATYYCARLDFGNYGGAMDYWGQGTSVTVSS VL: DIVMTQSHKFMSTSIGDRVSITCKASQHVSTAVAWYQQKPGQSPKLLIYSASYRYTGVPDRFTGSRSGTDFTFTISSVQAEDLAVYYCQQHYITPYTFGGGTKLEIKR",0.062 µg/mL,0.053 µg/mL,,,,,,,
"900686 (bispecific antibody, human IgG1, kappa, also called TIGIT-IgG-PD-L1-scFv) heavy: not shown light: DIQMTQSPSSLSASVGDRVTITCRASQHVSTAVNWYQQKPGKAPKLLIYSASYLYSGVPSRFSGSRSGTDFTLTISSLQPEDFATYYCQQHYITPYTFGQGTKLEIKRTVAAPSVFIFPPSDEQLKSGTASVVCLLNNFYPREAKVQWKVDNALQSGNSQESVTEQDSKDSTYSLSSTLTLSKADYEKHKVYACEVTHQGLSSPVTKSFNRGEC",,,12.9 nM,0.0476 nM,0.0002 s⁻¹,4.19e+06 M⁻¹ s⁻¹,0.893 nM,0.000419 s⁻¹,469000 M⁻¹ s⁻¹
"900681 (bispecific antibody, human IgG1, kappa, also called TIGIT-IgG-PD-L1-scFv) heavy: not shown light: DIQMTQSPSSLSASVGDRVTITCRASQHVSTAVNWYQQKPGKAPKLLIYSASYLYSGVPSRFSGSRSGTDFTLTISSLQPEDFATYYCQQHYITPYTFGQGTKLEIKRTVAAPSVFIFPPSDEQLKSGTASVVCLLNNFYPREAKVQWKVDNALQSGNSQESVTEQDSKDSTYSLSSTLTLSKADYEKHKVYACEVTHQGLSSPVTKSFNRGEC",,,8.96 nM,0.0693 nM,0.000245 s⁻¹,3.53e+06 M⁻¹ s⁻¹,1.47 nM,0.000427 s⁻¹,290000 M⁻¹ s⁻¹
"900684 (bispecific antibody, human IgG1, kappa, also called TIGIT-IgG-PD-L1-scFv) heavy: not shown light: DIQMTQSPSSLSASVGDRVTITCRASQHVSTAVNWYQQKPGKAPKLLIYSASYLYSGVPSRFSGSRSGTDFTLTISSLQPEDFATYYCQQHYITPYTFGQGTKLEIKRTVAAPSVFIFPPSDEQLKSGTASVVCLLNNFYPREAKVQWKVDNALQSGNSQESVTEQDSKDSTYSLSSTLTLSKADYEKHKVYACEVTHQGLSSPVTKSFNRGEC",,,11.1 nM,0.0502 nM,0.000184 s⁻¹,3.67e+06 M⁻¹ s⁻¹,1.29 nM,0.000376 s⁻¹,291000 M⁻¹ s⁻¹
"900683 (bispecific antibody, human IgG1, kappa, also called TIGIT-IgG-PD-L1-scFv) heavy: not shown light: DIQMTQSPSSLSASVGDRVTITCRASQHVSTAVNWYQQKPGKAPKLLIYSASYLYSGVPSRFSGSRSGTDFTLTISSLQPEDFATYYCQQHYITPYTFGQGTKLEIKRTVAAPSVFIFPPSDEQLKSGTASVVCLLNNFYPREAKVQWKVDNALQSGNSQESVTEQDSKDSTYSLSSTLTLSKADYEKHKVYACEVTHQGLSSPVTKSFNRGEC",,,8.64 nM,0.0478 nM,0.000196 s⁻¹,4.1e+06 M⁻¹ s⁻¹,1.05 nM,0.000492 s⁻¹,469000 M⁻¹ s⁻¹
"900428 (antibody, human IgG1, kappa, L234A L235A, V domains shown, also called anti-TIGIT chimeric antibody 900428) VH: DVQLQESGPGLVKPSQSLSLTCTVTGYSITSDYAWNWIRQFPGNRLEWMGYISYSGAPRYNPSLKSRISITRDTSKNQFFLQLSFVTTEDTATYYCASLGTDYYAMDYWGQGTSVIVSS VL: DIVMTQSHKFMFTSVGDRVSITCKASQHVSNAVAWYQQKPGQSPKLLIHSASYRYTGVPDRFTGRGSGTDFTFTINSVQAEDLAVYYCQQYYSLPWTFGGGTKLEIKR",0.069 µg/mL,0.075 µg/mL,,,,,,,
"900423 (antibody, human IgG1, kappa, L234A L235A, V domains shown, also called anti-TIGIT chimeric antibody 900423) VH: DVQLQESGPGLVKPSQSLSLTCTVTGYSITSDYAWNWIRQFPGNRLEWMGYISYSGAPRYNPSLKSRISITRDTSKNQFFLQLSFVTTEDTATYYCASLGTDYYAMDYWGQGTSVIVSS VL: DIVMTQSHKFMFTSVGDRVSITCKASQHVSNAVAWYQQKPGQSPKLLIHSASYRYTGVPDRFIGRGSGTDFTFTISSVQAEDLAVYYCQQYYSLPWTFGGGTKLEIKR",0.065 µg/mL,0.06 µg/mL,,,,,,,
"HB0031 (antibody, human IgG1, kappa, V domains shown, Humanized anti-TIGIT IgG1; also called 900464) VH: QVQLQESGPGLVKPSETLSLTCTVSGYSITSDYAWIWIRQPPGKGLEWIGYITSSGSTYYNPSLKSRVTFSVDTSKNQFSLKLSSVTAADTATYYCARLDFGNYGGAMDYWGQGTLVTVSS VL: DIQMTQSPSSLSASVGDRVTITCKASQHVSTALAWYQQKPGKAPKLLIYSASYLQSGVPSRFSGSRSGTDFTLTISSLQPEDFATYYCQQHYITPYTFGQGTKLEIKR",0.0665 µg/mL,0.0581 µg/mL,,,,,,,

# The remaining lines, values ahead:
IC50 [1],EC50 [2],"EC50 (nM), IL2 secretion of Jurkat-TIGIT-22G8 cells with PHA and CD155 [3]",Kd [4],koff [4],kon [4],Kd [5],koff [5],kon [5],Binder
,,12.1 nM,0.0428 nM,0.00021 s⁻¹,4.89e+06 M⁻¹ s⁻¹,2.76 nM,0.000527 s⁻¹,191000 M⁻¹ s⁻¹,"900685 (bispecific antibody, human IgG1, kappa, also called TIGIT-IgG-PD-L1-scFv) heavy: not shown light: DIQMTQSPSSLSASVGDRVTITCRASQHVSTAVNWYQQKPGKAPKLLIYSASYLYSGVPSRFSGSRSGTDFTLTISSLQPEDFATYYCQQHYITPYTFGQGTKLEIKRTVAAPSVFIFPPSDEQLKSGTASVVCLLNNFYPREAKVQWKVDNALQSGNSQESVTEQDSKDSTYSLSSTLTLSKADYEKHKVYACEVTHQGLSSPVTKSFNRGEC"
,,11 nM,0.0515 nM,0.000204 s⁻¹,3.96e+06 M⁻¹ s⁻¹,1.37 nM,0.00038 s⁻¹,278000 M⁻¹ s⁻¹,"900687 (bispecific antibody, human IgG1, kappa, also called TIGIT-IgG-PD-L1-scFv) heavy: not shown light: DIQMTQSPSSLSASVGDRVTITCRASQHVSTAVNWYQQKPGKAPKLLIYSASYLYSGVPSRFSGSRSGTDFTLTISSLQPEDFATYYCQQHYITPYTFGQGTKLEIKRTVAAPSVFIFPPSDEQLKSGTASVVCLLNNFYPREAKVQWKVDNALQSGNSQESVTEQDSKDSTYSLSSTLTLSKADYEKHKVYACEVTHQGLSSPVTKSFNRGEC"
0.056 µg/mL,0.0514 µg/mL,,,,,,,,"HB0033 (antibody, human IgG1, kappa, V domains shown, Humanized anti-TIGIT IgG1; also called 900476) VH: QVQLQESGPGLVKPSETLSLTCTVSGYSITSDYAWIWIRQPPGNKLEWIGYITSSGSTYYNPSLKSRVTFSVDTSKNQFSLKLSSVTAADTATYYCARLDFGNYGGAMDYWGQGTLVTVSS VL: DIQMTQSPSSLSASVGDRVTITCKASQHVSTALAWYQQKPGKAPKLLIYSASYLQSGVPSRFSGSRSGTDFTLTISSLQPEDFATYYCQQHYITPYTFGQGTKLEIKR"
0.0919 µg/mL,0.0785 µg/mL,,,,,,,,"HB0032 (antibody, human IgG1, kappa, V domains shown, Humanized anti-TIGIT IgG1; also called 900466) VH: QVQLQESGPGLVKPSETLSLTCTVSGYSITSDYAWIWIRQPPGKKLEWIGYITSSGSTYYNPSLKSRVTFSVDTSKNQFSLKLSSVTAADTATYYCARLDFGNYGGAMDYWGQGTLVTVSS VL: DIQMTQSPSSLSASVGDRVTITCKASQHVSTAVNWYQQKPGKAPKLLIYSASYRQSGVPSRFSGSGSGTDFTLTISSLQPEDFATYYCQQHYITPYTFGQGTKLEIKR"

# Reference: patent US20240010730A1 (SHANGHAI HUAOTA BIOPHARMACEUTICAL, published 2024)
